Test results as given in the supplement of paper PMC10567573.

B1: FAM164C (parent)
chain: YPHCTGISQQDPESDSQGQGNGLF

Variants of: B1
Test: protein stability index of a GFP-peptide fusion (GPS, HEK-293T) (PSI 1-6); higher = more stable
Details: c terminus: a fixed tail appended
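Also: lentivirally expressed fusions sorted by FACS into six bins by GFP to DsRed ratio, PSI derived from sequencing read proportions per bin multiplied by bin number.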

Row | Variant | protein stability index
1 | YPHCTGISQQDPESDSQGQGNFLF [G22F] | 2.94
2 | YPHCTGISQQDPESDSQGQGNKLF [G22K] | 3.96
3 | YPHCTGISQQDPESDSQGQGNMLF [G22M] | 2.96
4 | YPHCTGISQQDPESDSQGQGNSLF [G22S] | 3.57
5 | YPHCTGISQQDPESDSQGQGNCLF [G22C] | 3.16
6 | YPHCTGISQQDPESDSQGQGNRLF [G22R] | 3.78
7 | YPHCTGISQQDPESDSQGQGNILF [G22I] | 3.22
8 | YPHCTGISQQDPESDSQGQGNALF [G22A] | 3.78
9 | YPHCTGISQQDPESDSQGQGNELF [G22E] | 3.76
10 | YPHCTGISQQDPESDSQGQGNPLF [G22P] | 3.95
11 | YPHCTGISQQDPESDSQGQGNLLF [G22L] | 2.87
12 | YPHCTGISQQDPESDSQGQGNVLF [G22V] | 3.73
13 | YPHCTGISQQDPESDSQGQGNQLF [G22Q] | 3.44
14 | YPHCTGISQQDPESDSQGQGNHLF [G22H] | 2.97
15 | YPHCTGISQQDPESDSQGQGNWLF [G22W] | 2.04
16 | YPHCTGISQQDPESDSQGQGNYLF [G22Y] | 3.03
17 | YPHCTGISQQDPESDSQGQGNDLF [G22D] | 4.03
18 | YPHCTGISQQDPESDSQGQGNNLF [G22N] | 2.91
19 | YPHCTGISQQDPESDSQGQGNTLF [G22T] | 3.65
20 | YPHCTGISQQDPESDSQGQGFGLF [N21F] | 2.62
21 | YPHCTGISQQDPESDSQGQGIGLF [N21I] | 3.25
22 | YPHCTGISQQDPESDSQGQGSGLF [N21S] | 3.78
23 | YPHCTGISQQDPESDSQGQGHGLF [N21H] | 3.75
24 | YPHCTGISQQDPESDSQGQGDGLF [N21D] | 4.5

Row | Variant | protein stability index
25 | YPHCTGISQQDPESDSQGQGAGLF [N21A] | 3.83
26 | YPHCTGISQQDPESDSQGQGPGLF [N21P] | 3.99
27 | YPHCTGISQQDPESDSQGQGYGLF [N21Y] | 3.02
28 | YPHCTGISQQDPESDSQGQGEGLF [N21E] | 4.86
29 | YPHCTGISQQDPESDSQGQGQGLF [N21Q] | 4.07
30 | YPHCTGISQQDPESDSQGQGCGLF [N21C] | 3.65
31 | YPHCTGISQQDPESDSQGQGVGLF [N21V] | 3.54
32 | YPHCTGISQQDPESDSQGQGMGLF [N21M] | 3.35
33 | YPHCTGISQQDPESDSQGQGKGLF [N21K] | 3.77
34 | YPHCTGISQQDPESDSQGQGLGLF [N21L] | 3.41
35 | YPHCTGISQQDPESDSQGQGGGLF [N21G] | 3.5
36 | YPHCTGISQQDPESDSQGQGWGLF [N21W] | 2.35
37 | YPHCTGISQQDPESDSQGQGTGLF [N21T] | 4.04
38 | YPHCTGISQQDPESDSQGQGRGLF [N21R] | 3.55
39 | YPHCTGISQQDPESCSQGQGNGLF [D15C] | 2.79
40 | YPHCTGISQQDPESLSQGQGNGLF [D15L] | 2.8
41 | YPHCTGISQQDPESTSQGQGNGLF [D15T] | 2.95
42 | YPHCTGISQQDPESYSQGQGNGLF [D15Y] | 3.23
43 | YPHCTGISQQDPESRSQGQGNGLF [D15R] | 3.54
44 | YPHCTGISQQDPESMSQGQGNGLF [D15M] | 2.9
45 | YPHCTGISQQDPESNSQGQGNGLF [D15N] | 3.84
46 | YPHCTGISQQDPESPSQGQGNGLF [D15P] | 3.46
47 | YPHCTGISQQDPESQSQGQGNGLF [D15Q] | 3.44
48 | YPHCTGISQQDPESSSQGQGNGLF [D15S] | 3.73

Row | Variant | protein stability index
49 | YPHCTGISQQDPESWSQGQGNGLF [D15W] | 2.63
50 | YPHCTGISQQDPESISQGQGNGLF [D15I] | 2.9
51 | YPHCTGISQQDPESASQGQGNGLF [D15A] | 3.53
52 | YPHCTGISQQDPESVSQGQGNGLF [D15V] | 3.51
53 | YPHCTGISQQDPESESQGQGNGLF [D15E] | 4.07
54 | YPHCTGISQQDPESGSQGQGNGLF [D15G] | 2.94
55 | YPHCTGISQQDPESHSQGQGNGLF [D15H] | 3.66
56 | YPHCTGISQQDPESKSQGQGNGLF [D15K] | 3.64
57 | YPHCTGISQQDPESFSQGQGNGLF [D15F] | 2.94
58 | YPHCTGISQQDPESDYQGQGNGLF [S16Y] | 3.44
59 | YPHCTGISQQDPESDFQGQGNGLF [S16F] | 3.13
60 | YPHCTGISQQDPESDKQGQGNGLF [S16K] | 3.61
61 | YPHCTGISQQDPESDIQGQGNGLF [S16I] | 3.1
62 | YPHCTGISQQDPESDNQGQGNGLF [S16N] | 4.18
63 | YPHCTGISQQDPESDEQGQGNGLF [S16E] | 4.16
64 | YPHCTGISQQDPESDVQGQGNGLF [S16V] | 3.69
65 | YPHCTGISQQDPESDGQGQGNGLF [S16G] | 3.71
66 | YPHCTGISQQDPESDMQGQGNGLF [S16M] | 3.62
67 | YPHCTGISQQDPESDLQGQGNGLF [S16L] | 2.74
68 | YPHCTGISQQDPESDRQGQGNGLF [S16R] | 3.31
69 | YPHCTGISQQDPESDAQGQGNGLF [S16A] | 3.71
70 | YPHCTGISQQDPESDQQGQGNGLF [S16Q] | 3.8
71 | YPHCTGISQQDPESDCQGQGNGLF [S16C] | 3.35
72 | YPHCTGISQQDPESDTQGQGNGLF [S16T] | 3.73

Row | Variant | protein stability index
73 | YPHCTGISQQDPESDDQGQGNGLF [S16D] | 4.24
74 | YPHCTGISQQDPESDPQGQGNGLF [S16P] | 3.92
75 | YPHCTGISQQDPESDWQGQGNGLF [S16W] | 2.76
76 | YPHCTGISQQDPESDHQGQGNGLF [S16H] | 3.78
77 | YPHCTGISQQDPESDSQYQGNGLF [G18Y] | 3
78 | YPHCTGISQQDPESDSQSQGNGLF [G18S] | 3.77
79 | YPHCTGISQQDPESDSQQQGNGLF [G18Q] | 3.72
80 | YPHCTGISQQDPESDSQMQGNGLF [G18M] | 3.19
81 | YPHCTGISQQDPESDSQKQGNGLF [G18K] | 3.5
82 | YPHCTGISQQDPESDSQHQGNGLF [G18H] | 3.74
83 | YPHCTGISQQDPESDSQCQGNGLF [G18C] | 3.9
84 | YPHCTGISQQDPESDSQRQGNGLF [G18R] | 3.83
85 | YPHCTGISQQDPESDSQDQGNGLF [G18D] | 3.67
86 | YPHCTGISQQDPESDSQWQGNGLF [G18W] | 2.62
87 | YPHCTGISQQDPESDSQIQGNGLF [G18I] | 3.32
88 | YPHCTGISQQDPESDSQEQGNGLF [G18E] | 4.19
89 | YPHCTGISQQDPESDSQFQGNGLF [G18F] | 2.54
90 | YPHCTGISQQDPESDSQLQGNGLF [G18L] | 3.42
91 | YPHCTGISQQDPESDSQPQGNGLF [G18P] | 3.83
92 | YPHCTGISQQDPESDSQAQGNGLF [G18A] | 3.83
93 | YPHCTGISQQDPESDSQNQGNGLF [G18N] | 3.58
94 | YPHCTGISQQDPESDSQTQGNGLF [G18T] | 3.41
